The experiment addresses GPI-T (wild-type human GPI transamidase complex, purified by the same strategy as GPI-T^sub) (human) (UniProt O43292). Nature of the experiment: tandem affinity co-purification; co-expressed in HEK293T-derived knockout cells; solubilised with 1% LMNG/0.1% CHS, exchanged to digitonin; Strep-Tactin beads (Strep tag on PIGU) then Ni-NTA (His tag on (pro)ULBP2); 4 °C; 150 mM NaCl, Tris-HCl pH 8.0.

On to “ULBP2 (His-tagged GPI-anchored product, co-expressed with wild-type GPI-T) (from UniProt Q9BZM5 27-217) (natural protein)”, for which the yield during the second affinity chromatography step was found to be 4%.

These data come from article PMC10491789.
